Data published in the supplement of paper PMC12042874.
± gives the uncertainty stated by the source.

Test: amyloid nucleation score (Sup35N fusion, yeast selection) (log enrichment); library NNK3; higher = more nucleation; inactive = no reads after selection
In short: (§1)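 For the nucleation score, DiMSum gave the log enrichment of output over input reads, centred on the mode score of non-aggregating sequences. Psi-negative yeast expressing Sup35N fused to peptides of 20 random codons were induced with 100 μM copper sulfate for 24 hours and grown 7 days at 30°C on medium lacking adenine and uracil. Input and output plasmid inserts were Illumina-sequenced, and sequences with under 100 input reads were excluded.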
For LMYMS, the amyloid nucleation score was “inactive”.

Test: amyloid nucleation score (Sup35N fusion, yeast selection) (log enrichment); library NNK1; higher = more nucleation; inactive = no reads after selection
In short: as §1
LMYMS gave an amyloid nucleation score of -0.11 ± 0.67.
Work on RLLVFQSCKFVRGTSLCLVT yielded an amyloid nucleation score of 3.66 ± 0.069.
Substance VGICMWHN has an amyloid nucleation score of 0.718 ± 0.21.
In the case of EVILFNGLRMRAVPETWAST, the amyloid nucleation score is reported as 0.587 ± 0.4.
With GHLCSLSSGFN the amyloid nucleation score was 0.69 ± 0.24.
With GTLYWLHASV the amyloid nucleation score was 0.617 ± 0.47.
ILRNDMSATVNM showed an amyloid nucleation score of 0.97 ± 0.17.
VSLVAGTWFYFWHNALVTYH showed an amyloid nucleation score of -0.067 ± 0.36.
With LHLNLLAQDHLCREMTAAMS the amyloid nucleation score was -0.771 ± 1.7.
Substance SSLQPLIFMRSIHLIVW has an amyloid nucleation score of 0.265 ± 0.75.
Work on EALNPVVLPSTN yielded an amyloid nucleation score of 1.55 ± 0.14.
Substance TEKTVRCDLTWQTHLLLCFA has an amyloid nucleation score of -0.369 ± 0.83.
For LGICLLCTDIWDRVGNLCSL, the amyloid nucleation score was -0.041 ± 0.33.
With VSFIYFRVWILAMDY the amyloid nucleation score was 0.842 ± 0.37.
Work on TDIVVCSCDGFWKYSYIGGL yielded an amyloid nucleation score of 2.18 ± 0.12.
With WNSSYDGRFIAYAMQWSNKE the amyloid nucleation score was -0.118 ± 0.48.
For YMISNMVKVVFSSTDRNVGN, the amyloid nucleation score was 5.935 ± 0.051.
IWRWPRMESKSGYHSDFNST gave an amyloid nucleation score of -1.32 ± 2.4.
For GPSLWLKTMVKGYAKTGLYR, the amyloid nucleation score was -0.219 ± 0.32.
RCMSDFRPVWVYVS showed an amyloid nucleation score of -0.222 ± 0.86.
For SMVKRSSVVYGLSRGSIKER, the amyloid nucleation score was 1.08 ± 0.69.
Substance ARIEFSGWFHPQLDLVFFVQ has an amyloid nucleation score of 1.97 ± 0.15.
Substance CSDSNIPLHNHSWGTSVVDN has an amyloid nucleation score of 1.31 ± 0.63.
FRGSLIFSISVIKVISVLSE gave an amyloid nucleation score of 2.11 ± 0.14.
For YTWGRLGSEIKPARASMHLA, the amyloid nucleation score was 1.08 ± 0.75.
In the case of ESSGRGCVPSEKIDEHGPVT, the amyloid nucleation score is reported as -0.319 ± 1.
Work on DNTIYDSMCFDAGNPDLCIH yielded an amyloid nucleation score of 0.439 ± 0.23.
In the case of YWTSIHSLNTSIP, the amyloid nucleation score is reported as -0.229 ± 0.62.
EVWNRTWIGEENVTGPFVPR showed an amyloid nucleation score of -0.012 ± 0.24.
With SGAYLKASYTSPSVRVFLVL the amyloid nucleation score was 2.75 ± 0.25.
In the case of GILFALSIVRDDYFC, the amyloid nucleation score is reported as -0.215 ± 0.19.
For VCNIS, the amyloid nucleation score was 0.985 ± 0.42.
For RILYMYWVFMVLFMTPRCLD, the amyloid nucleation score was -0.099 ± 0.48.
KMQPQMTCFS showed an amyloid nucleation score of -0.435 ± 0.53.
VAGAVNNSWWGLSNVARAKR showed an amyloid nucleation score of 0.082 ± 0.54.
For ISSKLLFSESSPSMSIQTHW, the amyloid nucleation score was 0.765 ± 0.64.
WTRSM showed an amyloid nucleation score of 0.018 ± 0.41.
For CLVVYHSRKAW, the amyloid nucleation score was 2.64 ± 0.16.
In the case of CNELI, the amyloid nucleation score is reported as “inactive”.
Work on CDSFVSFMPNFNFFR yielded an amyloid nucleation score of 5.03 ± 0.056.
In the case of RCRAVELLEVRRLQMRSGHH, the amyloid nucleation score is reported as -0.295 ± 0.34.
For RYSLYQSEWVGKSMRDLTAR, the amyloid nucleation score was 1.03 ± 0.62.
With PPTGTLSRHVRSSVQGMGVA the amyloid nucleation score was “inactive”.
LWFSYATCICIPRIPSNC gave an amyloid nucleation score of 6.26 ± 0.071.
TEIILYSILLSMYDLMFVVI gave an amyloid nucleation score of 0.268 ± 1.4.
FKTTDHFVGVYCLLYAKKQG gave an amyloid nucleation score of -0.235 ± 0.77.
GSLKEMEKHPWKKATTYQYA showed an amyloid nucleation score of 1.47 ± 0.23.
For SLDYVSQFIQLLRFFKFYMV, the amyloid nucleation score was “inactive”.
FRSGFSLKARSVQMCDRF gave an amyloid nucleation score of 1.26 ± 0.42.
With DLFSTVFNWMTNCPFKNSW the amyloid nucleation score was -0.32 ± 0.49.
TYDVMTLGENVKGLCISARC gave an amyloid nucleation score of -0.412 ± 0.42.
In the case of IFILD, the amyloid nucleation score is reported as “inactive”.
In the case of LLRWLRTVVSGGCVSVNLVE, the amyloid nucleation score is reported as 0.034 ± 0.28.
NWIVCRPDAGMQPRTNNLIV showed an amyloid nucleation score of -0.536 ± 0.58.
EKSGAWSTVRRMISC gave an amyloid nucleation score of 0.374 ± 0.23.
In the case of YSVLTFADLYMVSMS, the amyloid nucleation score is reported as “inactive”.
In the case of LLFCQNDSGVVRLMLTVFLR, the amyloid nucleation score is reported as -0.791 ± 1.2.
In the case of MHRSFFHVM, the amyloid nucleation score is reported as 2.33 ± 0.52.
PVVPCYPRLKVCTGRRTAGA showed an amyloid nucleation score of 0.684 ± 0.55.
Substance RTCSKHYIWYKALIGFALGN has an amyloid nucleation score of -0.27 ± 0.33.
For SVDRMAYRMCMRNVRLNLCT, the amyloid nucleation score was 0.962 ± 0.37.
For SRLMLFQIFDAKQIDVNDM, the amyloid nucleation score was 5.03 ± 0.071.
